# According to the nanobody polyreactivity screen of Harvey et al. (2022):
# Experiment: yeast display, Sf9 membrane polyspecificity reagent, FACS + sequencing; frameworks hold sequencing errors
# How it was run: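 Galactose induction of a Saccharomyces cerevisiae BJ5465 synthetic nanobody display library ran 36–48 hours. The cells were then stained for 1 hour at 4 °C with 10% biotinylated, detergent-solubilized Sf9 membrane reagent, pulled down on streptavidin microbeads and FACS-sorted into low and high (top ~1%) gates on expression and reagent-binding fluorescence. Labels for polyreactivity follow the gate of origin.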
row,Sequence,polyreactivity (PSR sort gate)
1,QVQLVESGGGLVQAGGSLRLSCAASGRTFYANAMGWYRHAPGKERELVASITGSGGRTYYADSVKGRFTISRDNAKNTVYLLMNSLKPEDTAVYYCNADPGWVYRDYEPNGLDYWGQGTQVTVSS,low polyreactivity
2,QVQLVDSGGGLVQAGGSLRLSCAASGFIFSDYAMGWYRQAPGKEREFVAAISSGGSTYYADSVKGRFTISRDNAKNTVYLQMNSLKPEDTAVYYCNALWYREMDYWGQGTQVTVSS,high polyreactivity
3,QVQLVESGGGLVQAGGSLRLSCAASGSIFRAYAMGWYRQAPGKEMELVAAISSGVSTNYADSVKGRFTISRDNAKNTVYLQMNSLKPEDTAVYYCNTDKYSESYRSYEYWGQGTQVTVSS,low polyreactivity
4,QVQLVESGGGLVQAGGSLRLSCAASGSTFAGNAMGWYRQAPGKERELVAAISSGDRTYYADSVKGRFIISRDNAKNTVYLQMNSLKPEDTAVYYCAAGLYLQGPFDYWGQGTQVTVSS,low polyreactivity
5,QVQLVESGGGLVQAGGSLRLSCAASGLTFKYYAMGWYRQAPGKERELVAAITSTGGRTYYADSVKGRFTISRDNAKNTVYLQMNSLKPEDTAVYYCAKDTHWAYYWGQGTQVTVSS,low polyreactivity
6,QVQLVETGGGLVQAGGSLRLSCAASGRTFAGNAMGWYRQAPGKERELVAGISSGGSTNYADSVKGRFTISRDNAKNTVYLQMNSLNPEDTAVYYCAKRYFRKGYPLFHYAYGYWGQVTQVTVSS,high polyreactivity
7,QVQLVESGGGLVQAGGSLRLTSAASGITFYGYAMGWYRQAPGKETELVAAISRSGSSTYYADSVKGRFTISRYNAKNTVYLQMNSLKPEVTAVYYCAARAWAQWGDYWGQGTQLTVSS,high polyreactivity
8,QVQLVESGGGLVQAGGSLRLSSAASGRIFRGNEMGWYRQAPGKEREFVAAISWGGGSTYYADSVKGRFTISRDNAKKTVYLQMNSLKPEDTAVYYCAAGSPYAYNYWGQGTQVTVSS,high polyreactivity
9,QVQLVESGGGLVQAGGSLRLSCAASGRIFSVNAMGWYRQAPGKERELVAAITTRGGTTYYADSVKGRFTISRDNAKNTVSLQMNSLKPEDTAVYYCAAESSWYVYWEWAHDYWGQGTQVTVSS,low polyreactivity
10,QVQLVESGGGLVQAGGSLRLSCAASGLIFQVYTMGWYRQAPGKERELVAAISWDAGSTYYADSVKGRFTISRDNAKNTVYLQMNSLKPEDTAVYYCAAKRKIRGYGPYEYWGQGTQVTVSS,high polyreactivity
11,QDQLVESGGGLVQAGGSLRLSFAASGLTFRYYAMGWYRQAPGKERELVAAISSGGRTDYADSVKGRFTISRDNAKNTVYLQMNSLKPEDTAVYYCNARGRIRSYRQVRTYSAYNYWGQGTQVTVSS,high polyreactivity
12,QVQLVESGGGLVQAGGSLRLRCAASGSIFYRNAMGWYRQAPGKERELVASITSGGRTNYADSLKGRFTISRDNAKNTVYLQMNSLKPEDTAVYYCAVQYHAASDHSYWGQGTQVTVSS,low polyreactivity
13,QVQLVESGGGLVQAGGSLRLTCAASGLTFSYNAMGWYRQAPGKERELVAAITVSGGRTYYADSVKGRFTISRDNAKNTVYLQMNSLKPEDTAVYYCNADYDEGYYGYLRYDYDYWGQGTQVTVSS,high polyreactivity
14,QVQLVESGGGLVQAGGSLRLSCAASGSIFFDYAMGWYRQAPGKETELVAAMSSTGGSTYYADSVKGRFTISRDNSKNTVYLQMNSLIPEDTAVYYCNARYYSYSSPYDYWGEGTQVTVSS,high polyreactivity
15,QVQLVESGGGLVQAGGSLRLSCAASGFIFGVNAMVWYRQAPGKERELVAAITRNGGSTYYADSVKGRFTISRDNAKNTVYLQMKSLKPEDTAVYYCAKYVRRAPSTFDVDYWGQGTQVTVSS,high polyreactivity
16,QVQLVDSGGGLVQAGGSLRLSCAASGINFQGNAMGWYRQAPGKERELVASITAGGDTTYYADSVKGRFTISRDNAKNTVYLQMNSLKPEDTAVYYCAVDSWLDADDSYPDSILVDYWGQGTQVTVSS,low polyreactivity
17,QVQLVESGGVLVQAGGSLRLSCAASGRTFYGYAMGWNRQAPGKERYLVAAIDIDVGNTYYADSVKGRFTISRDNAKNTVYLQMNSLKPEDTAVYYCAAEIPSWWLPALFRYDYWGQGTQVTVSS,low polyreactivity
18,QVQLVESGGGLVQAGGSLRLSCAASGITFYYNAMGWYRQAPGKERELVAAISDGSSTNYADSVKGRFTISRDTAKNTVYLQMNSLKPEDTAVYYCNADLVLFPLTWPYYYWGQGTQVTVSS,low polyreactivity
19,QVQLVESGGGLVQAGGSLRLSCAASGRTFIGYAMGWYRPAPGKERELVAGISWSGGSTYYADSVKGRFTISRDNAKNPVSLQMNSLKPEDTAVYYCAARGRWSTEYGYWGQGTQVTVSS,low polyreactivity
20,QVQLVESAGGLVQAGGSLSLSCAASGSTFYKYTMGWDRQAPGKERELVAAISGSGTTTYYADSVKGRFTISRDNAKNTVYLQMNSLKPEDTAVYYCAAHSRSSSGYHWGQGTQVTVSS,high polyreactivity
21,QVQLVESGGGLVQAGGSLRLSCAASGRTFDINDMGWYRQAPGKEREFVAAIDWSGGYTYYADSVKGRFIISRDNAKNTVYLQMNSQKPEDTAVYYCNARRKRSYDYWGQGTQGTVSS,low polyreactivity

row,Sequence,polyreactivity (PSR sort gate)
1,QVQLVESGGGLVQAGGSLRLSCAASGFIFYSNAMGWYRQSPGKERELVAGISRGGSTYYADSVKGRFTISRDNAKNTVYLQMNRLKPEDTAVYYCAAKISLGDDYWGQGTQVTVSS,low polyreactivity
2,QVQLVESGGGLVQAGGSLRLSCAASGSIFWGNTMGWYRQAPGKERELVAAISRSGSSTYYADSVKGRFTISRDNAKNTVYLQMNSLKPEDTAVYYCAASVPYYTGYYYNAYEYWGQGTQVTVSS,high polyreactivity
3,QVQLVESGGGLVQAGGSLRLSCAASGSIFWQYAMGWYRQAPGKERELVAAINWSGDTTYYADSVKGRFTISRDNAKNTVYLQMNSLKPEDTAVYYCAAVGGVSFGGSPKTHAGEDYWGQGTQVTVSS,low polyreactivity
4,QVQLVESGGGLVQAGGSLRLSCAASGSTFISYAMGWYRQAPGKEREMVAAISWDGGSTYYADSVKGRFTISRDNAKNTVYLQMNSLKPEDTAVYYCNAEYDGAAGRYEYWGPGTQVTVSS,low polyreactivity
5,QVQLVESGGGLVQAGGSLRISCAASGSTFLTNTLGWYRQAPGKERELVAAITLRGGRTYYADSVKGRFTISRDNAKNTVYLQMNSLKPEDTAVYYCNARNYYYPSDRDYWGQGTQVTVSS,low polyreactivity
6,QVQLVESGVGLVQAGGSLRLSCAASGSTFSYYAMGWYRQAPGKERELVAAITRSGGRTYYADSVKGRFTISRDNAKNTVYLQMNSLKPEDTAVYYCAALSVGTRRDYWGQGTQVTVSS,low polyreactivity
7,QVQLVESGGGLVQAGGSLRLSCAASGCIFAHNAMGWYRQAPGKERELVAASTYYADSVKGRFTISRDNAKNTVYLQMNSLKPEDTAVYYCAKRTRFSPGHDYWGQGTQVTVSS,high polyreactivity
8,QVQLVESGGGLVQAGGSLRLSCAASGNIFVPSAMGWYRQEPGKERELVAAINVGGSTNYADSLNGRFTNSRDNPKNTVYLQMNSVKPEDTAVNYFGAVWYFLSLWYDYWGHGTQVTVSS,high polyreactivity
9,QVQLVESVGGLVQAGGSLRLICAASGRIFVHYAMGWYRQAPGKERELVAAISWNGGRTFYADSVKGRFTISRDNAKNTVYLQMNSLKPEDTAVSYCAARSRYSLDYWGQGTQVTVSS,high polyreactivity
10,QVQLVESGGGLVQAGGSLRLSCAASGFTFEFNVMGWYRQAPGKERELVASIRWGSTSYADSVKGRFTISRDNAKNTVYLQMNSLKPEDTAVYYCAADRSTGLGDDDYWGQGTQVTVSS,low polyreactivity
11,QVQLVESGGGLLHAGGSLRLSCAASGRTFPSYAMGWYRQAPGKERELVAAISSRGSRTYYADSVKGRFTISRDNAKNTVYLQMYSLKPEDTAVYYCAAKNLWTRKSRYDYWGQGTQVTVSS,high polyreactivity
12,QVELVESGGGLVLAGGSLRLSCADSGRTFSYYAMGWYRQAPGKERELVAVITSSGGSTSYADSVKGRFTISRDNAKNTVYLQMNSLKPEDTAVYDCAADPLAVYWAYYLIGVYYWGQGTQVTVSS,high polyreactivity
13,QVQLVESGGGLVQAGGSLRLSCAASGRIFDRNAMGWYRQATGKERELVARIDPGDDTNYADSVKGRFTISRDNAKNTVYLLMNSLKPEDTAVYYCATDPDYVLYRTAYYEYDYWGHGTQVTVSS,low polyreactivity
14,QVQLVESGGGLVQAGGSLRLSCAASGSIFGTYAMGWYRQAPGKEREFVAAISWSDGSTYYADSVKGRFTISRDNAKNTVYLQMNSLKPEDTAVYYCAAKSDPYRHDYWGQGTQVTVSS,low polyreactivity
15,QVHLVESGGGLVQAGGSLRLSCAASGSTFRSNAMGWYRQAPGKERELVASITSRGGSTYYADSVKGRFTISRDNAKNTVYLQMNSLKPEDTAVYYCATARSYLTYSYHYDYWGQGTQVTVSS,low polyreactivity
16,QVQLVESGGGLVQAGGSLRLSCAASGLIFRWYAMGWYRQAPGKERELVAAISRRGGNTYYADSVKGRFTISRDNAKNTVYLQMNSLKPEDTAVYYCAASPIRSQGNDYWGQGTQVNVSS,high polyreactivity
17,QVQLVESGGGLVQAGGSLRLSCAASGFTIQRYAMGWSRQAPGKERELVAAITSGGSTYYADSVKGRFTISRDNAKNTVYLQMNSLKPEDTAVYYCAAYYRGRAYISYGYWGQGTQVTVSS,high polyreactivity
18,QVQLVESGGGLVQAGGSLRLSCAASGSIFKWYAMGWYRQAPGKERALVATISSSGSSTYYADSVKGRLTISRDNAKNTVYLQMNSLKPEDTAVYYCATTYGWRYPAMDYWGQGTQVTVSS,high polyreactivity
19,QVQLVESGGGLVQAGGSLRLSCAASGSTTSVNAMGWYTQAPGKEREFVATISFGGGRTYYADSVKGRFTISRDNAKNTVYLQRNSRKPEDTAVYYCAAVGSRWFSQTWRDYWGQGTQVTVSS,high polyreactivity
20,QVQLVESGGGLVQAGGSLRLSCAASGFTFVGNAMGWYRQAPGQERELVAAITRGGSTYYADSVKGRFTISRDNAKNTVYLQMNSLKPEDTAVYYCNAELPVHWSWYDYWGQGTQVNVSS,low polyreactivity
